Entries after “also recorded” stand apart in the source; their conditions may differ. Each block holds one molecule with its values, some of them ahead of it.
Key:
ROBO2 = target: T1, ROBO2 (Homo sapiens, UniProt Q9HCK4); test: ECD binding assay on Cos7 cells overexpressing Robo2; conditions: Cos7 cells overexpressing Robo2, sodium azide, 1H incubation, immunostaining
T1 construct: expressed in transfected cells; host or cells: Cos7
T1 sequence (Q9HCK4 22-1378): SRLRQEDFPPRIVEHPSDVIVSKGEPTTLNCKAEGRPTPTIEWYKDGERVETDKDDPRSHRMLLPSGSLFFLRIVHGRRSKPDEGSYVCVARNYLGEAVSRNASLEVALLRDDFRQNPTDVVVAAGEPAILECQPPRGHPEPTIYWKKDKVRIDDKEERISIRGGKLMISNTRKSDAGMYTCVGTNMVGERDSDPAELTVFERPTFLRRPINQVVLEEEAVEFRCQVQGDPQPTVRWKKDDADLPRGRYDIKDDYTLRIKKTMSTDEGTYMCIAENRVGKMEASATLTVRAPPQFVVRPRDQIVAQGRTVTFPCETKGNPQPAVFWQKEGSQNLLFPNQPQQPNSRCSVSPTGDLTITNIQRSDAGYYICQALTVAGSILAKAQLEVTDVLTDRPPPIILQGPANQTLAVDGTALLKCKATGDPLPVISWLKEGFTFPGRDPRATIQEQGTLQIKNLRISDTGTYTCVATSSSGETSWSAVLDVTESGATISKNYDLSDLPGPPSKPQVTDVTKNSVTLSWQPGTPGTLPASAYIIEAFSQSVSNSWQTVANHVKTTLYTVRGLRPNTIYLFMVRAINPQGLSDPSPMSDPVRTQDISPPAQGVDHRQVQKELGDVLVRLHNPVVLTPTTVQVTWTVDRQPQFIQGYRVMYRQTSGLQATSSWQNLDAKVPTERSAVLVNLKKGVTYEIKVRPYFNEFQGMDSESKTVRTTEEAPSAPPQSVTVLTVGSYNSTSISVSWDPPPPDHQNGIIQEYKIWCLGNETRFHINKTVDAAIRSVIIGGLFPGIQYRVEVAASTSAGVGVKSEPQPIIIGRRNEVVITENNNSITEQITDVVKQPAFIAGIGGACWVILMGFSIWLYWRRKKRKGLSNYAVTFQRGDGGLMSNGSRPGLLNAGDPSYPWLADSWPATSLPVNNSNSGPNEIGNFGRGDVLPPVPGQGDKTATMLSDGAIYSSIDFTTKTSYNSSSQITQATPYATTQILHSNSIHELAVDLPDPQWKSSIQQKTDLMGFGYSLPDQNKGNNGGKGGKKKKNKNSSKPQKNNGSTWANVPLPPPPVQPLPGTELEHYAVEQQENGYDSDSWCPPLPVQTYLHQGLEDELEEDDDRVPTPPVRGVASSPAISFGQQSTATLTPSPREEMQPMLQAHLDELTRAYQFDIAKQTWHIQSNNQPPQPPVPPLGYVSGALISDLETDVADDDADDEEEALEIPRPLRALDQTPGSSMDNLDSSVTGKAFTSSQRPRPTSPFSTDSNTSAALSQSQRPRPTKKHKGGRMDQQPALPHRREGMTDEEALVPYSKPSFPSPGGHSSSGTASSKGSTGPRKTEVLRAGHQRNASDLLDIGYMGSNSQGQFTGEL
Experimental: Soluble ROBO1 ECD fragments ROBO1-Ig2 and ROBO1-Ig5 generated in the presence of heparin were used in a dome assay. […] Because treatment with heparin had only a modest positive effect on ROBO1 ECD production and a deleterious effect on their function (FIG. 6C, E), the use of heparin to generate soluble ROBO1 ECD fragments was not pursued. The ability of a ROBO1 ECD fragment to bind ROBO2 receptors was tested by overexpressing Robo2 in Cos7 cells, treating cells with sodium azide to prevent protein internalization and then incubating cells with ROBO1-Ecto-HA 1H prior to fixation and immunostaining.

HC11 cells [1] = test: HC11 dome assay (milk dome formation on differentiation in DIP media); assay type: cell-based, mouse; conditions: HC11 cells, increasing ECD concentration
Experimental: To investigate ROBO1 function during alveologenesis, Robo1 gene expression was inhibited in HC11 cells (Robo1 KD). HC11 cells are a well-established, prolactin-responsive model of lactation,^19,20. Cells in which Robo1 gene expression was not inhibited are referred to as WT or Robo1+/+ herein. To measure milk production, cells were grown to confluence and then primed by treatment with epidermal growth factor (EGF, 10 ng/ml). The EGF is administered for three days in combination with charcoal-stripped fetal bovine serum, followed by one day of charcoal-stripped fetal bovine serum in the absence of EGF. These primed cells are then differentiated by treatment with dexamethasone (1 μg/ml), insulin (5 μg/ml) and prolactin (Prl, 5 μg/ml) media (DIP media) for between 3 and 5 days (FIG. 2A). Differentiation (Dif) results in the development of milk-filled domes (FIG. 2B). […] If the cells were left undifferentiated (Undif), there was little dome formation in either WT or Robo1−/− cells (FIG. 2B). Next, tissue from Robo1 knockout mice (Robo1−/−) and wild type mice (WT or Robo1+/+) mice was analyzed. Mammary glands were harvested from pregnant day 18 WT and Robo1−/− animals and alveologenesis analyzed by serially sectioning, carmine staining and then quantifying the area occupied by alveoli in sections located at top, middle and bottom portions of the tissue.
Dome number formation in response to a titration of ROBO1 ECD fragments was quantified. […] A bovine ROBO1-Ig5 construct was also tested in this assay and, as with the rat constructs, more domes were formed in response to treatment with higher concentrations of […] (FIG. 7H).
HC11 cells were grown in RPMI 1640 media (Gibco) supplemented with 10% fetal bovine serum (BioFluid Technologies), 5 μg/mL insulin (Sigma), and 10 ng/ml epidermal growth factor (EGF; Sigma). To induce differentiation in HC11 cells, confluent plates were given fresh media (RPMI 1640 media supplemented with 5% charcoal-stripped fetal bovine serum (BioFluid Technologies), 5 μg/mL insulin, and 10 ng/ml epidermal growth factor (EGF; Sigma) for 3 days followed by 24 hours of priming in priming medium (RPMI 1640 media supplemented with 5% charcoal-stripped fetal bovine serum (BioFluid Technologies), and 5 μg/mL insulin. After priming, DIP medium (RPMI 1640 media supplemented with 5% charcoal-stripped fetal bovine serum (BioFluid Technologies), 10^−6 M dexamethasone (Sigma), 5 μg/mL insulin, and 5 μg/mL prolactin (National Hormone and Peptide program) was added with fresh media every 24 hours.

DCC = target: T2, DCC (Homo sapiens, UniProt P43146); test: ECD binding assay on cells overexpressing DCC
T2 construct: expressed in transfected cells
Experimental: FIG. 6: ROBO1 extracellular domains. (A) Cartoon showing domain structure of the ROBO1 extracellular domain (ECD) panel (B) Western blot of ROBO1 ECDs and control DCC ECDs in lysates and conditioned media of HEK cells overexpressing plasmid constructs. (C) Dot blot assay of media (left) and quantification (right) of ROBO1-Ig5 secretion from HEK cells overexpressing Robo-Ig5 in the absence and presence of heparin (300 ng/ml). […] (F) ECD binding assay using ROBO1-Ecto and cells overexpressing ROBO2 (top, green) and cells overexpressing DCC (bottom, green). ROBO1-Ecto-HA (red) binds to ROBO2, but not to DCC.

HC11 cells [2] = test: Western blot analysis of WAP and PLIN2 in HC11 cells; assay type: cell-based, mouse; conditions: ECD titration
Experimental: To determine whether the promotion of dome formation also results in higher milk production, HC11 cells were differentiated in the presence or absence of ROBO1-ECD fragments that were added to cells simultaneously with DIP media. Cells were harvested and the expression of WAP and Lalba assessed by RT-qPCR. […] WAP expression levels were not increased in cells treated with DCC-Ig4 (FIG. 7K). Next, Western blot analysis of WAP and PLIN2 was performed on cells treated with ROBO1-Ig5 and ROBO1-Ecto.
Protein lysates were prepared by directly lysing adherent cells in 1× sample buffer supplemented with 5% beta-mercaptoethanol and boiled for 5 minutes. Protein lysate was resolved by SDS-PAGE and transferred to a PVDF for 90 minutes at 400 mA or overnight at 30 mA. Primary antibodies were used at the concentration indicated in Table 1 and incubated overnight at 4° C. HRP conjugated secondary antibodies (Jackson Labs) were used at 1:3000 and incubated for 45 minutes at room temp. All proteins were detected using Clarity ECL (BioRad) using a BioRad Chemi-Doc MP Imager and quantified using ImageLab software as previously described a.

HC11 cells [3] = test: Bodipy 493/503 neutral lipid staining of differentiated HC11 cells; assay type: cell-based, mouse; conditions: Bodipy493/503 staining
Experimental: To determine whether the ROBO1 ECD fragments influence NOTCH4 signaling, HC11 assays were performed to monitor dome formation using both phase contrast microscopy (FIG. 7A, B, top), and fluorescent microscopy using hydrophobic Bodipy493/503 that binds neutral lipids (FIG. 7A, B, bottom). Undifferentiated (Undif) cells are distinct with interconnecting processes visible in phase contrast and little/no Bodipy staining (FIG. 7A). Upon differentiation and prolactin treatment, small lipid droplets accumulate that appear as dark-rimmed circles in phase contrast (FIG. 7B, top) and as punctate green circles by Bodipy staining (FIG. 7B, bottom).
Place cells in a half-volume of buffer or media. Make a 2× solution (2 μg/ml=7.6 μM) of Invitrogen™ BODIPY™ 493/503 dye in 0.5 mL volume of the same pre-warmed buffer or media (no cells, no BSA or serum) and mix vigorously to mechanically emulsify this solution. Immediately add to the solution of cells, mix and incubate up to 30 min.

Notch signaling = test: RT-qPCR of Notch effector expression (Hey1, Hes1) in HC11 cells; assay type: cell-based, mouse; conditions: HC11 cells treated with ROBO1-ECD fragments
Experimental: To examine the effects of ROBO1-ECD fragments on Notch signaling, HC11 cells were treated with ROBO1-ECD fragments and Notch effector expression assessed. […] In addition, HC11 cells were treated with ROBO-Ig5 during differentiation. These cells were then fractionated and a Western blot performed to detect HES1 and NOTCH4-ICD (FIG. 8B).
Total RNA was harvested from cells lysed in TRIzol reagent (Invitrogen) and phase separated according to manufacturer's protocol with an additional overnight RNA precipitation stem in ethanol (Macias et al., 2011). The RNA was further purified with TURBO DNase (Ambion) treatment. Total RNA quality was analyzed by agarose gel electrophoresis and quantified with an ND-1000 spectrophotometer (NanoDrop). cDNA libraries were prepared from 1 μg of total RNA using iScript cDNA synthesis kit (BioRad). Quantitative RT-PCR was performed in triplicates using light Cycler 480 SYBR Green I Master (Roche) and quantified using BioRad CFX'Connect Real-Time System and CFX Manager software (BioRad). Results were normalized to GAPDH.

T2 sequence (P43146 26-1447, species assumed): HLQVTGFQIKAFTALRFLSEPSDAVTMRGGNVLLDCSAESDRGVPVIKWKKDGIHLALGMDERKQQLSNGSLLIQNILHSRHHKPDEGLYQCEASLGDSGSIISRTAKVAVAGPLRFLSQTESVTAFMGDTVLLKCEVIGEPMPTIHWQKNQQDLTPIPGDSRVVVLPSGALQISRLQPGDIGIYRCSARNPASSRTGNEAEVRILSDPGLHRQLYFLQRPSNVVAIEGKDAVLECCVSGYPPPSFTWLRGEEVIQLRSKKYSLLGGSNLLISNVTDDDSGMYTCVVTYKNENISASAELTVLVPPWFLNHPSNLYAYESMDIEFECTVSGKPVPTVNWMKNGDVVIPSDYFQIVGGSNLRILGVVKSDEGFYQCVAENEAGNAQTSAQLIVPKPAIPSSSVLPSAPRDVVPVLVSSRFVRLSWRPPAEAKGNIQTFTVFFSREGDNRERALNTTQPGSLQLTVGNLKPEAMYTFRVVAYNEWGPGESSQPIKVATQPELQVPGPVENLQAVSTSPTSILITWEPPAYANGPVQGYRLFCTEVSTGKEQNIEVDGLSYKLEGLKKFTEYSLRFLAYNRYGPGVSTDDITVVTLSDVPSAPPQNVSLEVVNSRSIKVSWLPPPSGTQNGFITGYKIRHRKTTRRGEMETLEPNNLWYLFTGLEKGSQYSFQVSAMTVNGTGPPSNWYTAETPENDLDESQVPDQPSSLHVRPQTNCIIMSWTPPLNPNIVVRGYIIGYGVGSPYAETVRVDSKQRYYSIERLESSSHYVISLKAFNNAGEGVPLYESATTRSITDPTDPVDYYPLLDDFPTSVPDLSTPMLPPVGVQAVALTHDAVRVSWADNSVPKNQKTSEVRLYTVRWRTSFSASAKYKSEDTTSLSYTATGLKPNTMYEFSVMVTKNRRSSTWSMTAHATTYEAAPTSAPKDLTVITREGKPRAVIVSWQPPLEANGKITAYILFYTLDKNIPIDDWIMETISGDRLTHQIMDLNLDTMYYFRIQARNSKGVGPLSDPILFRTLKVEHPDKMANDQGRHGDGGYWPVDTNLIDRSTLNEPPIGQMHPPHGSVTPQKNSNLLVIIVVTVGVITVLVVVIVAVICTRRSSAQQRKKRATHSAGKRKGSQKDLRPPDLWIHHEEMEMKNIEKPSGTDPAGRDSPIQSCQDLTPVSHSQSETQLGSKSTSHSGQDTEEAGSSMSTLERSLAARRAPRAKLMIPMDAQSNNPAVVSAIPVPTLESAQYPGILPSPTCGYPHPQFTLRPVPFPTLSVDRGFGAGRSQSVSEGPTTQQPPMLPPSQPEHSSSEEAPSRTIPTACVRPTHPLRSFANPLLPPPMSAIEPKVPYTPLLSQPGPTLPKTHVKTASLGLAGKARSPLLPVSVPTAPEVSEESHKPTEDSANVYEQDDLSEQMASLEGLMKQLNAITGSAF

binding to ROBO2 (ROBO2): does not bind
B1: DCC-Ig2: extracellular domain of Deleted in Colorectal Cancer comprising two Ig domains, HA tagged, negative control (protein, listed as Rattus norvegicus)
chain: FTSLHFVSEPSDAVTMRGGNVLLNCSAESDRGVPVIKWKKDGLILALGMDDRKQQLPNGSLLIQNILHSRHHKPDEGLYQCEASLGDSGSIISRTAKVMVAGPLRFLSQTESITAFMGDTVLLKCEVIGDPMPTIHWQKNQQDLNPIPGDSRVVVLPSGALQISRLQPGDSGVYRCSARNPASTRTGNEAEVRILSDPGL
modifications: HA tag
notes: extracellular domain of Deleted in Colorectal Cancer comprising two Ig domains, HA tagged, negative control
dome formation in response to a titration of ECD fragments (HC11 cells [1]): not observed

binding to ROBO2 (ROBO2): binds
binding to DCC (DCC): not to DCC
B2: ROBO1-Ecto-HA: ROBO1-Ecto fused to HA (hemagglutinin) tag (protein)
chain: SRLRQEDFPPRIVEHPSDLIVSKGEPATLNCKAEGRPTPTIEWYKGGERVETDKDDPRSHRMLLPSGSLFFLRIVHGRKSRPDEGVYICVARNYLGEAVSHNASLEVAILRDDFRQNPSDVMVAVGEPAVMECQPPRGHPEPTISWKKDGSPLDDKDERITIRGGKLMITYTRKSDAGKYVCVGTNMVGERESEVAELTVLERPSFVKRPSNLAVTVDDSAEFKCEARGDPVPTVRWRKDDGELPKSRYEIRDDHTLKIRKVTAGDMGSYTCVAENMVGKAEASATLTVQEPPHFVVKPRDQVVALGRTVTFQCEATGNPQPAIFWRREGSQNLLFSYQPPQSSSRFSVSQTGDLTVTNVQRSDVGYYICQTLNVAGSIITKAYLEVTDVIADRPPPVIRQGPVNQTVAVDGTLTLSCVATGSPVPTILWRKDGVLVSTQDSRIKQLESGVLQIRYAKLGDTGRYTCTASTPSGEATWSAYIEVQEFGVPVQPPRPTDPNLIPSAPSKPEVTDVSKNTVTLLWQPNLNSGATPTSYIIEAFSHASGSSWQTVAENVKTETFAIKGLKPNAIYLFLVRAANAYGISDPSQISDPVKTQDVPPTTQGVDHKQVQRELGNVVLHLHNPTILSSSSVEVHWTVDQQSQYIQGYKILYRPSGASHGESEWLVFEVRTPTKNSVVIPDLRKGVNYEIKARPFFNEFQGADSEIKFAKTLEEAPSAPPRSVTVSKNDGNGTAILVTWQPPPEDTQNGMVQEYKVWCLGNETRYHINKTVDGSTFSVVIPSLVPGIRYSVEVAASTGAGPGVKSEPQF
modifications: left off: small tags and cut ends
notes: ROBO1-Ecto fused to HA (hemagglutinin) tag

B3: ROBO1-Ecto: recombinant soluble ROBO1 construct comprising the entire extracellular domain (protein)
chain: B2 chain
modifications: left off: small tags and cut ends
notes: recombinant soluble ROBO1 construct comprising the entire extracellular domain
dome formation in response to a titration of ECD fragments (HC11 cells [1]): higher rates of dome formation
PLIN2 protein expression (HC11 cells [2]): approximately two-fold; also recorded: increased
WAP protein expression (HC11 cells [2]): approximately two-fold; also recorded: increased
number of cells completely surrounded by lipid droplets (HC11 cells [3]): higher number of cells completely surrounded by lipid droplets
Hes1 expression (Notch signaling): lower expression; also recorded: decreased
Hey1 expression (Notch signaling): lower expression; also recorded: decreased

From patent publication US12139531B2, “Compositions and methods useful in promoting milk production” (The Regents of the University of California, priority 2019, dated 2024)
